Source: PMC12646661 (The Journal of Clinical Investigation, 2025)

Target: T1, rN2 (A/Hong Kong/1/1968), soluble recombinant neuraminidase (influenza A virus A/Hong Kong/1/1968 …)
T1 chain: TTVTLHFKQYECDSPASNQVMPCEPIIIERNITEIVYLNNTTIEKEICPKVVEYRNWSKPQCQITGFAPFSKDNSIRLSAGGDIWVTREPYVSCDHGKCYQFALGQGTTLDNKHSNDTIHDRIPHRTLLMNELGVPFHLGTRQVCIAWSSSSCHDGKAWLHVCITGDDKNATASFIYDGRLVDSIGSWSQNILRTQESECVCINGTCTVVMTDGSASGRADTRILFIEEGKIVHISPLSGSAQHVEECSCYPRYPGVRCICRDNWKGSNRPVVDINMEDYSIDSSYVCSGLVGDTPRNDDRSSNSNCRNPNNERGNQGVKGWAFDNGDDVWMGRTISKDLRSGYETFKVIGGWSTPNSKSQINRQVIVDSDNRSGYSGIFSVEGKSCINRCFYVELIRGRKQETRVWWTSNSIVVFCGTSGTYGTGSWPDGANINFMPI
Assay: ELISA
Conditions: both partners purified

B1: rFNI9 (recombinant version of the broadly neutralizing NA antibody FNI9) (antibody, V domains shown)
VH: QVHLVQSGAEVKEPGSSVTVSCKASGGSFNNQAISWVRQAPGQGLEWMGGIFPISGTPTSAQRFQGRVTFTADESTTTVYMDLSSLRSDDTAVYYCARAGSDYFNRDLGWENYYFASWGQGTLVTVSS
VL: EIVMTQSPATLSLSSGERATLSCRASRSVSSNLAWYQQKPGQAPRLLIYDASTRATGFSARFAGSGSGTEFTLTISSLQSEDSAIYYCQQYNNWPPWTFGQGTKVEIK
Question: Does B1 bind?
Answer: binds

B2: r1G01 (recombinant version of the previously described mAb 1G01) (antibody, V domains shown)
VH: EVQLVESGGRALRPGGSLRLSCAASGFKFDDYAMSWVRQVPGKGLEFVSGLNWNGDITAYTDSVKGRFTVSRDNAKNSLYLHINSPKPEDTALYYCARTSSWGDYTRGPEPKITWYFDLWGRGTLVTVSS
VL: DIQLTQSPSFLSASVGDRITITCRASQGIDGYLAWYQQRPGKAPNLLIYAASLLQSGVPSRFSGSGYGTEFTLTISSLQPEDFATYYCQHLDSYPLFTFGPGTKVDIK
Question: Does B2 bind?
Answer: binds
